PMC9135631 (2022)

B1: Latrophilin-3 wild type (Lphn3^HA,Flag) (receptor)
chain: MWPSQLLIFMMLLAPIIHAFSRAPIPMAVVRRELSCESYPIELRCPGTDVIMIESANYGRTDDKICDSDPAQMENIRCYLPDAYKIMSQRCNNRTQCAVVAGPDVFPDPCPGTYKYLEVQYECVPYKVEQKVFLCPGLLKGVYQSEHLFESDHQSGAWCKDPLQASDKIYYMPWTPYRTDTLTEYSSKDDFIAGRPTTTYKLPHRVDGTGFVVYDGALFFNKERTRNIVKFDLRTRIKSGEAIIANANYHDTSPYRWGGKSDIDLAVDENGLWVIYATEQNNGKIVISQLNPYTLRIEGTWDTAYDKRSASNAFMICGILYVVKSVYEDDDNEATGNKIDYIYNTDQSKDSLVDVPFPNSYQYIAAVDYNPRDNLLYVWNNYHVVKYSLDFGPLDSRSGQAHHGQVSYISPPIHLDSELERPSVKDISTTGPLGMGSTTTSTTLRTTTLSPGRSTTPSVSGRRNRSTSTPSPAVEVLDDMTTHLPSASSQIPALEESCEAVEAREIMWFKTRQGQIAKQPCPAGTIGVSTYLCLAPDGIWDPQGPDLSNCSSPWVNHITQKLKSGETAANIARELAEQTRNHLNAGDITYSVRAMDQLVGLLDVQLRNLTPGGKDSAARSLNKLQKRERSCRAYVQAMVETVNNLLQPQALNAWRDLTTSDQLRAATMLLHTVEESAFVLADNLLKTDIVRENTDNIKLEVARLSTEGNLEDLKFPENMGHGSTIQLSANTLKQNGRNGEIRVAFVLYNNLGPYLSTENASMKLGTEALSTNHSVIVNSPVITAAINKEFSNKVYLADPVVFTVKHIKQSEENFNPNCSFWSYSKRTMTGYWSTQGCRLLTTNKTHTTCSCNHLTNFAVLMAHVEVKHSDAVHDLLLDVITWVGILLSLVCLLICIFTFCFFRGLQSDRNTIHKNLCISLFVAELLFLIGINRTDQPIACAVFAALLHFFFLAAFTWMFLEGVQLYIMLVEVFESEHSRRKYFYLVGYGMPALIVAVSAAVDYRSYGTDKVCWLRLDTYFIWSFIGPATLIIMLNVIFLGIALYKMFHHTAILKPESGCLDNINYEDNRPFIKSWVIGAIALLCLLGLTWAFGLMYINESTVIMAYLFTIFNSLQGMFIFIFHCVLQKKVRKEYGKCLRTHCCSGKSTESSIGSGKTSGSRTPGRYSTGSQSRIRRMWNDTVRKQSESSFITGDINSSASLNREPYRETSMGVKLNIAYQIGASEQCQGYKCHGYSTTEW
B2: soluble FLRT3 extracellular domain fused to the constant fraction of human IgG (FLRT3^ECD-Fc) (Fc fusion)
chain: KSCPSVCRCDAGFIYCNDRFLTSIPTGIPEDATTLYLQNNQINNAGIPSDLKNLLKVERIYLYHNSLDEFPTNLPKYVKELHLQENNIRTITYDSLSKIPYLEELHLDDNSVSAVSIEEGAFRDSNYLRLLFLSRNHLSTIPWGLPRTIEELRLDDNRISTISSPSLQGLTSLKRLVLDGNLLNNHGLGDKVFFNLVNLTELSLVRNSLTAAPVNLPGTNLRKLYLQDNHINRVPPNAFSYLRQLYRLDMSNNNLSNLPQGIFDDLDNITQLILRNNPWYCGCKMKWVRDWLQSLPVKVNVRGLMCQAPEKVRGMAIKDLNAELFDCKDSGIVSTIQITTAIPNTVYPAQGQWPAPVTKQPDIKNPKLTKDHQTTGSPSRKTITITVKSVTSDTIHISWKLALPMTALRLSWLKLGHSPAFGSITETIVTGERSEYLVTALEPDSPYKVCMVPMETSNLYLFDETPVCIETETAPLRMYNPTTTLNREQEKEPYKNPNLP
modifications: N-terminal HA/Flag epitopes left out; isoform not printed (Q9HAR2-2 chosen over Q9HAR2-4, both fit the variant numbering); signal peptide removed and autoproteolysis at the GPS expected in the cell

How the values were obtained:
[1] = target: 8xHis-tagged Teneurin-2 extracellular domain (Ten2^ECD-His) (UniProt Q9NT68 401-2774, N-terminal HA/Flag epitopes left out; isoform not printed (Q9HAR2-2 chosen over Q9HAR2-4, both fit the variant numbering); signal peptide removed and autoproteolysis at the GPS expected in the cell)
[2] = target: B1

| Kd [1] [nM] | Kd [2] [nM] | Binder |
| --- | --- | --- |
| 0.69 |  | B1 |
|  | 0.988 | B2 |
